According to publication PMC4324299, “Characterization of interactions between inclusion membrane proteins from Chlamydia trachomatis” (Frontiers in Cellular and Infection Microbiology, 2015):

B1: Ct222 (natural protein)
chain: MRCCCVRTNYEEVRSSSTGDQVVSAVKERKCDSSLCRKIASVAFTLIGALLLGIGMVLSFALLGSSAGLIGVGVILSALGAVCLSLGLCKLFLRMKRVSLDKAEQKMLEDQVELLRQENQELKALVYSN
notes: Ct222, putative inclusion membrane protein of C. trachomatis; also called Ct222 FL; source: bacterial two-hybrid (BACTH) fusion, co-expressed in E. coli DHT1; not shown: T25 (as bait) or T18 (as prey) fragment of B. pertussis adenylate cyclase, N-terminal, kept
B2: Ct850 (natural protein)
chain: MGFGTVRGKGKAVKSFFLRPLQNLEVGLFSLPIVLLLGEIGCVSSISSVSLVAVLSIVGVFVALVSFFRSWGYGLSVVGAIFFGLALCNNFPVSVFWGGLLTVSFIISYGILLLSVSLVEGHIKEKAVSLSELTASHNSLQDSYNREVQERKEKELLAQSKITALEQELSVSHEQLQEVSRKYTHASEDLQILIDQRDSWLKDYMTLHQEYVRVVAGDEENVIFPWKVFQGNSEKDSGYQQRVQDAEHKIAHLEKLCEEENSGKRYAEECLDKALADLLESTRLREILEKEIFQKDEEIASLKQEIAAEKLLSSSVSDDRAAYKGKYLQLREQFTVKDSFLKKARRERFLAQEQLLVLKRAKEEEASNLSTTDSFSIIQNLLLQIEALEEEVTYLEELVLHNQNR
notes: Ct850, putative inclusion membrane protein of C. trachomatis; source: bacterial two-hybrid (BACTH) fusion, co-expressed in E. coli DHT1; not shown: T25 (as bait) or T18 (as prey) fragment of B. pertussis adenylate cyclase, N-terminal, kept

Assays:
Assay in all cases: two-hybrid
Ct850 = biological target: B2; details: partners not purified
two-hybrid = biological target: the molecule itself
Ct222 = biological target: B1; details: partners not purified

| Binder | β-galactosidase activity (Ct850) | β-galactosidase activity (two-hybrid) | β-galactosidase activity (Ct222) |
| --- | --- | --- | --- |
| B1 | 92 relative units (RU) | 317 relative units (RU) |  |
| B2 |  |  | 151 relative units (RU) |
